% Inhibition of Specific Binding and Percentage inhibition (%) data for two molecules are collected here from patent publication US20230212549A1, “COMPOUNDS COMPRISING A […] LIGAND AND USE THEREOF” (priority 2021, published 2023).

One assay concerns the target T1, GR (h) (human), P04150.
T1 chain: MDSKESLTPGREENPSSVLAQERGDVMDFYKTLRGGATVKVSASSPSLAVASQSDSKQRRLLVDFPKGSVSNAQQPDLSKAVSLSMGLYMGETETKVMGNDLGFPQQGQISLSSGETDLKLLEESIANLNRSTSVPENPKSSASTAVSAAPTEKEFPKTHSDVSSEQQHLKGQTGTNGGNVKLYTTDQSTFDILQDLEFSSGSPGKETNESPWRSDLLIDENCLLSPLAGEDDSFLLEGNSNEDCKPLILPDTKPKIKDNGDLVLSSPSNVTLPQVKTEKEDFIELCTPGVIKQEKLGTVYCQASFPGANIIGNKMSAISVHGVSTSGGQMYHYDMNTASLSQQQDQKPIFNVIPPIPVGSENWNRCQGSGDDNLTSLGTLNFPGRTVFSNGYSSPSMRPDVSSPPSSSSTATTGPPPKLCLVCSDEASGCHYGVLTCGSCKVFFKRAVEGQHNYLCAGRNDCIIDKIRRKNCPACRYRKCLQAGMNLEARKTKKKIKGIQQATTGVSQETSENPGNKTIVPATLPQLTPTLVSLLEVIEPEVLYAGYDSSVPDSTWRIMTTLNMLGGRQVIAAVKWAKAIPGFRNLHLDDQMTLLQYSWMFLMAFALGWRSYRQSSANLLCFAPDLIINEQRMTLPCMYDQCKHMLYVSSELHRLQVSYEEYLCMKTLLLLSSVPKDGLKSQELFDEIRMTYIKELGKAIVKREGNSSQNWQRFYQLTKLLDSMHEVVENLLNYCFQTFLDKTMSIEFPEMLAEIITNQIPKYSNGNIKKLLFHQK
Nature of the assay: radioligand displacement (agonist radioligand), 10 µM. The conditions noted are these: remark: other sources report otherwise.

The target of assay [1] is T2, 5-HT1A (h) (human), P08908.
T2 chain: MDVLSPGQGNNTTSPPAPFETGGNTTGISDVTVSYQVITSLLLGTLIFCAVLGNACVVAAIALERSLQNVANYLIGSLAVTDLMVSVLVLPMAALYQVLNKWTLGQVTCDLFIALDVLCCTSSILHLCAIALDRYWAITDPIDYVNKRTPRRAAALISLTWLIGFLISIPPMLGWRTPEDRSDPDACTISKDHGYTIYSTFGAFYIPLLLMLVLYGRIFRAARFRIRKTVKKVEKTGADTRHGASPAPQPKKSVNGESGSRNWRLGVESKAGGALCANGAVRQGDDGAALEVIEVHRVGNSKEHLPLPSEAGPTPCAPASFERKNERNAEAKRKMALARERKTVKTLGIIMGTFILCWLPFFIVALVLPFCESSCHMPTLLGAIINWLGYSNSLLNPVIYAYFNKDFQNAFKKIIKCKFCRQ
The description is as above. Particulars: remark: other sources report otherwise.

The target of assay [2] is kappa (h) (KOP) (human), P41145. The assay is described as above. Particulars: remark: other sources report otherwise.
Chain of kappa (h) (KOP) (human), P41145 (P41145 whole entry): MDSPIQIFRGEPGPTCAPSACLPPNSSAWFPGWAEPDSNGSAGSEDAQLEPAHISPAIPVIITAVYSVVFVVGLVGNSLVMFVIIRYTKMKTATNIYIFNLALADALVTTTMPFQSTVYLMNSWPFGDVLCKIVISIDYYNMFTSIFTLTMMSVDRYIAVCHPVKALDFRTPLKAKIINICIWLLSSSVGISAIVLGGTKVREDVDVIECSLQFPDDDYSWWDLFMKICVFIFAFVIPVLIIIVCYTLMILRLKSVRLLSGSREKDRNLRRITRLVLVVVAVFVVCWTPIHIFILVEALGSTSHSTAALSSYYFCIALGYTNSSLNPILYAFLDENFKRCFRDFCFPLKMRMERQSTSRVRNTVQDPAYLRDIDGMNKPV
Assay [3] deals with T3, CCK1 (CCKA) (h) (human), P32238.
T3 chain: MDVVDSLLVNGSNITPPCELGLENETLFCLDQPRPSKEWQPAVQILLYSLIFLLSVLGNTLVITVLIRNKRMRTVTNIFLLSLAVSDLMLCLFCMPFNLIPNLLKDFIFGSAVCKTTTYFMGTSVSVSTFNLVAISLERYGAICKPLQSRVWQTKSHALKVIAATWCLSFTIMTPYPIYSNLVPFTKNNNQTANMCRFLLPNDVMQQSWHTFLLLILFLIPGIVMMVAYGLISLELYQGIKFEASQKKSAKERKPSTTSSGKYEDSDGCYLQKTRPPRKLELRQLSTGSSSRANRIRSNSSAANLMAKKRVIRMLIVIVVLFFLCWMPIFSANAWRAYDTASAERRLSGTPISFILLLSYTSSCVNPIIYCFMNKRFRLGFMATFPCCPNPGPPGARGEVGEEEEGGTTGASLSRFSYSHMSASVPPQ
The description is as above. Particulars: remark: other sources report otherwise.

Assay [4] concerns the target 5-HT2B (h) (human), P41595. Described as above. Particulars: remark: other sources report otherwise.
Assay [5] concerns the target beta 1 (h) (human), P08588. The assay is described as above. The conditions noted are these: remark: other sources report otherwise.
For a further assay, the target named is T4, DPP3, Q9NY33.
T4 chain: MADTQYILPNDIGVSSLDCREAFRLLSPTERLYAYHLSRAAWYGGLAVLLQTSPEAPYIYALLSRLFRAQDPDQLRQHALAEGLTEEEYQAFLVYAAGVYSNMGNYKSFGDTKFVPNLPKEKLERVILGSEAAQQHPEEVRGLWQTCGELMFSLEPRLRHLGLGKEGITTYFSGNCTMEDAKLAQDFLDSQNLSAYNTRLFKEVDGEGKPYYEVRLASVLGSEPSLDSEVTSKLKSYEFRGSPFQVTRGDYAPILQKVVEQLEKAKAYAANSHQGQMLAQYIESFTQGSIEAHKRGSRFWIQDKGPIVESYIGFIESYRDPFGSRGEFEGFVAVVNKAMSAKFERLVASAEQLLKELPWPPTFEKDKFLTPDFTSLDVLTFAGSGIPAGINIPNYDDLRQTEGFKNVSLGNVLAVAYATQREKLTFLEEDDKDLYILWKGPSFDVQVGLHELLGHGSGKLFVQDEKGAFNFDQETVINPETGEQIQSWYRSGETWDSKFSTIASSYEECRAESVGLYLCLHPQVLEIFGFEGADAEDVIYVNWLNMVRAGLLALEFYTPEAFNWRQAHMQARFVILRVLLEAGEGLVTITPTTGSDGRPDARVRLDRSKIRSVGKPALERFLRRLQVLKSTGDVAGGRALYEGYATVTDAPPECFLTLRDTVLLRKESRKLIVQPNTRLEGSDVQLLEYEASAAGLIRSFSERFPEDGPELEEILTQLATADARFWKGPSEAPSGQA
Nature of the assay: cell-based or functional assay.

Bridge positions count the residues as written; N and C are the ends.

Chain of 5-HT2B (h) (human), P41595 (P41595 whole entry): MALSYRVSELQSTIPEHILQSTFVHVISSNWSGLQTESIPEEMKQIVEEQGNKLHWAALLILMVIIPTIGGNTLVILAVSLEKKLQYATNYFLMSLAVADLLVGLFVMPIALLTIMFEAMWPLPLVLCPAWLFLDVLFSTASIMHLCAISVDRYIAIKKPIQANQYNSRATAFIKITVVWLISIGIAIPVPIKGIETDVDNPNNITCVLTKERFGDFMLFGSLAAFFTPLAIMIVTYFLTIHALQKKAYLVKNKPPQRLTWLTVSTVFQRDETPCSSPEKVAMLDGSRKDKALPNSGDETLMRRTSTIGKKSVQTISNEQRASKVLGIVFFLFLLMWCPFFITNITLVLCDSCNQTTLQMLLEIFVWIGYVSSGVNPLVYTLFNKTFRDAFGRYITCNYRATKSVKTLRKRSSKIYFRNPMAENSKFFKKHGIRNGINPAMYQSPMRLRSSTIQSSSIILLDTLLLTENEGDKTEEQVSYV
Chain of beta 1 (h) (human), P08588 (P08588 whole entry): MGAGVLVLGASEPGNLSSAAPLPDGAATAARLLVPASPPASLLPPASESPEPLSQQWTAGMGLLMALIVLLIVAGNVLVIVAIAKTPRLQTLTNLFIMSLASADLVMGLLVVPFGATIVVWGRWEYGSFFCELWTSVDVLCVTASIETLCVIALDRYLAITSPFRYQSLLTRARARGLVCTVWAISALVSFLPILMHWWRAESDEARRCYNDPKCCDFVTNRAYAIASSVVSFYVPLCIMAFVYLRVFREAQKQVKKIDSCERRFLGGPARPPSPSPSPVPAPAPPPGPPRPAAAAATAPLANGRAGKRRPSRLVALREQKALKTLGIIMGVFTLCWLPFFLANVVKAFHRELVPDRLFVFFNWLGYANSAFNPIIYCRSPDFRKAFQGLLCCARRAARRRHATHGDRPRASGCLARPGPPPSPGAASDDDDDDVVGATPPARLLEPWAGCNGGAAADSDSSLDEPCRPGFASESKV

B1: Hex-[Cys(tMeBn(DOTA-AET))-Pro-Pro-Thr-Gln-Phe-Cys]-OH (peptide)
peptide: Hex-CPPTQFC-OH
modifications: bridge 1-7; not fully specified (bridges); printed as Hex-[Cys(tMeBn(DOTA-AET))-Pro-Pro-Thr-Gln-Phe-Cys]-OH
In the case of B1, the % Inhibition of Specific Binding with GR (h) (human), P04150 is 0%; in assay [1] it was -5%; in assay [2] it was 10%; in assay [3] it was 16%; in assay [4], 3%; in assay [5], -13%. In addition, the Percentage inhibition (%) at 1 µM with DPP3, Q9NY33 was 2%. For the same molecule, the Percentage inhibition (%) at 10 µM in the assay with DPP3, Q9NY33 is -1%.

B2: Hex-[Cys(tMeBn(DOTA-PP))-Pro-Pro-Thr-Gln-Phe-Cys]-Asp-NH2 (peptide)
peptide: Hex-CPPTQFCD-NH2
modifications: bridge 1-7; not fully specified (bridges); printed as Hex-[Cys(tMeBn(DOTA-PP))-Pro-Pro-Thr-Gln-Phe-Cys]-Asp-NH2
As for B2, the % Inhibition of Specific Binding is -2% with GR (h) (human), P04150; -3% in assay [1]; 7% in assay [2]; 24% in assay [3]; 2% in assay [4]; 4% in assay [5].
